This series concerns the molecule itself. Description: cell-based or functional assay.

Substitutions are numbered along the chain they refer to. Names may count otherwise.

B1: T40A mutant (SEQ ID NO: 82) (designed binder)
chain: MRGSHHHHHHGSGRGDSGSGSGSGSGSGSGAPQMLRELQEANAALQDVRELLRQQVKEITFLKNTVMESDASGSGSGSGSGSVDGSPAGSPTSTEEGTSESATPESGPGTSTEPSEGSAPGSPAGSPTSTEEGTSTEPSEGSAPGTSTEPSEGSAPGTSESATPESGPGSEPATSGSETPGSEPATSGSETPGSPAGSPTSTEEGTSESATPESGPGTSTEPSEGSAPLESGSGSGSGSGSGAPQMLRELQEANAALQDVRELLRQQVKEITFLKNTVMESDASGSGSGSGSGSGSGRGDSHHHHHHKLN
On to B1, for which the “Recovery Time Crossover [s], 25 C” value was determined as 4.51 s; the “Recovery Time Crossover [s], 37 C” value worked out at 4.58 s; the “Strain crossover (G'' > G'), 25 C” value is 127 % strain; the “Strain crossover (G'' > G'), 37 C” value was found to be 143 % strain.

B2: T40A+Q54A mutant (SEQ ID NO: 84) (designed binder)
chain: B1 chain with Q55A, Q267A
As to B2, the “Recovery Time Crossover [s], 25 C” value amounted to 4.39 s; the “Recovery Time Crossover [s], 37 C” value turned out to be 4.38 s; the “Strain crossover (G'' > G'), 25 C” value was 119 % strain; the “Strain crossover (G'' > G'), 37 C” value worked out at 95 % strain.

B3: Q54A mutant (SEQ ID NO: 83) (designed binder)
chain: B1 chain with A41T, Q55A, A253T, Q267A
Consider B3, for which the “Recovery Time Crossover [s], 25 C” value worked out at 4.45 s; the “Recovery Time Crossover [s], 37 C” value was 4.39 s; the “Strain crossover (G'' > G'), 25 C” value stood at 116 % strain; the “Strain crossover (G'' > G'), 37 C” value is 132 % strain.

B4: PXP (SEQ ID NO: 81) (designed binder)
chain: MRGSHHHHHHGSGRGDSVDGSGSGSGSGSGSGAPQMLRELQETNAALQDVRELLRQQVKEITFLKNTVMESDASGSGSGSGSGSGSLDGSPAGSPTSTEEGTSESATPESGPGTSTEPSEGSAPGSPAGSPTSTEEGTSTEPSEGSAPGTSTEPSEGSAPGTSESATPESGPGSEPATSGSETPGSEPATSGSETPGSPAGSPTSTEEGTSESATPESGPGTSTEPSEGSAPLDGSGSGSGSGSGSGAPQMLRELQETNAALQDVRELLRQQVKEITFLKNTVMESDASGSGSGSGSGSGSLEGRGDSHHHHHHKLN
Consider B4, for which the “Recovery Time Crossover [s], 25 C” value is 4.79 s; the “Recovery Time Crossover [s], 37 C” value came out at 7.91 s; the “Strain crossover (G'' > G'), 25 C” value amounted to 161 % strain; the “Strain crossover (G'' > G'), 37 C” value was found to be 151 % strain.
